Patent US20200317768A1 (published 2020)
Residue numbers refer to the chain shown, from its start.

T1: human FcγRIIaR extracellular domain, His-tagged (human, UniProt P12318 34-217)
T1 construct: also called human FcγRIIa (type R); FcgRIIaR; not shown: C-terminal His-tag
T1 chain: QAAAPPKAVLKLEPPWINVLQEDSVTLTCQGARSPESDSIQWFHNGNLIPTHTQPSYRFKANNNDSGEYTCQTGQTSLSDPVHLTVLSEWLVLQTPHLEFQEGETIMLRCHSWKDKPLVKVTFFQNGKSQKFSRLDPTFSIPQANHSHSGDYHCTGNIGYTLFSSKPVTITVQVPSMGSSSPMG

T2: human FcγRIIaH extracellular domain, His-tagged (human, UniProt P12318 34-217)
T2 construct: also called human FcγRIIa (type H); FcgRIIaH; not shown: C-terminal His-tag
T2 sequence: T1 chain with R134H

T3: human FcγRIIb extracellular domain, His-tagged (human, UniProt P31994 43-217)
T3 construct: also called FcgRIIb (human); not shown: C-terminal His-tag
T3 sequence: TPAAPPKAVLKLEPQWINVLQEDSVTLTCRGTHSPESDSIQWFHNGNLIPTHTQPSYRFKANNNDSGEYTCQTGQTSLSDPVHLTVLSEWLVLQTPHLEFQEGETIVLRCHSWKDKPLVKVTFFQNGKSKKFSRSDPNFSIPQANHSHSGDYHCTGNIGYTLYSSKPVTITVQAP

T4: cynomolgus monkey FcγRIIb extracellular domain, His-tagged (cynomolgus monkey)
T4 construct: also called cyno FcγRIIb; cynoFcγRIIb; not shown: C-terminal His-tag
T4 chain: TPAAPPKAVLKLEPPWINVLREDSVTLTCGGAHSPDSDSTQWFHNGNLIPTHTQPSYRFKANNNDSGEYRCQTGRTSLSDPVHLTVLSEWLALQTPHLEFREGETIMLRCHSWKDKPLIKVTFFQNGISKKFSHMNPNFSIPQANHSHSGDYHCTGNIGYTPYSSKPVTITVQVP

T5: cynomolgus monkey FcγRIIa1 extracellular domain, His-tagged (cynomolgus monkey)
T5 construct: also called cyno FcγRIIa1; cynoFcgRIIa1; not shown: C-terminal His-tag
T5 chain: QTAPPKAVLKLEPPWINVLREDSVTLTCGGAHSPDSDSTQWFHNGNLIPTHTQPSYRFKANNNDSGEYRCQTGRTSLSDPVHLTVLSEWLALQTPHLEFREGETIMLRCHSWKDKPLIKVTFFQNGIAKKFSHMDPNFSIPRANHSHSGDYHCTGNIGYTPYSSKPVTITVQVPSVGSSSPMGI

T6: cynomolgus monkey FcγRIIa2 extracellular domain, His-tagged (cynomolgus monkey)
T6 construct: also called cyno FcγRIIa2; cynoFcgRIIa2; not shown: C-terminal His-tag
T6 chain: T5 chain with P95T, T121A, I127K, A128S, K130N, D135N, R142Q

T7: cynomolgus monkey FcγRIIa3 extracellular domain, His-tagged (cynomolgus monkey)
T7 construct: also called cyno FcγRIIa3; cynoFcgRIIa3; not shown: C-terminal His-tag
T7 chain: T5 chain with P95T, T121A, A128S, H133P, D135N

B1: M103205H795-MY460/M103202L889-SK1 (antibody, human IgG1, kappa)
heavy: QVTLKESGPVLVKPTETLTLTCTVSGIDLSHDDISWVRQAPGKGLEWVGIISYAGSTYYASWAKGRLTISKDTSKNQVVLTMTNMDPVDTATYYCARGVPAYSHGGDLWGQGTLVTVSSASTKGPSVFPLAPSSKSTSGGTAALGCLVKDYFPEPVTVSWNSGALTSGVHTFPAVLQSSGLYSLSSVVTVPSSSLGTQTYICNVNHKPSNTKVDKKVEPKSCDKTHTCPPCPEPELLTGPSVFLFPPKPKDTLMISRTPEVTCVVVDVSDEDPEVKFNWYVDGVEVHNAKTKPREEQYNSTYRVVSVLTVLHQDWLNGKEYKCKVSNKALPKPIEKTISKAKGQPREPQVYTLPPSREEMTKNQVSLTCLVKGFYPSDIAVEWESNGQPENNYKTTPPVLDSDGSFFLYSKLTVDKSRWQQGNVFSCSVMHEALHNHYTQKSLSLSP
light: DIVMTQSPATLSLSPGERATLSCTSSQSVYHANWLSWFQQKPGQPPKLLIYWASTLAYGVPSRFSGSGSGTDFTLTISSLQPEDAATYYCAGGYGGGRYAFGQGTKVEIKRTVAAPSVFIFPPSDEQLKSGTASVVCLLNNFYPREAKVQWKVDNALQSGNSQESVTEQDSKDSTYSLSSTLTLSKADYEKHKVYACEVTHQGLSSPVTKSFNRGEC
notes: copies: 2 + 2
B2: M103205H795-MY465/M103202L889-SK1 (antibody, human IgG1, kappa)
heavy: B1 heavy with E233K
light: B1 light
notes: copies: 2 + 2
B3: M103205H795-MY462/M103202L889-SK1 (antibody, human IgG1, kappa)
heavy: B1 heavy with E233G
light: B1 light
notes: copies: 2 + 2
B4: M103205H795-MY471/M103202L889-SK1 (antibody, human IgG1, kappa)
heavy: B1 heavy with E233R
light: B1 light
notes: copies: 2 + 2
B5: M103205H795-MY470/M103202L889-SK1 (antibody, human IgG1, kappa)
heavy: B1 heavy with E233Q
light: B1 light
notes: copies: 2 + 2
B6: M103205H795-MY467/M103202L889-SK1 (antibody, human IgG1, kappa)
heavy: B1 heavy with E233M
light: B1 light
notes: copies: 2 + 2
B7: M103205H795-MY463/M103202L889-SK1 (antibody, human IgG1, kappa)
heavy: B1 heavy with E233H
light: B1 light
notes: copies: 2 + 2
B8: M103205H795-MY464/M103202L889-SK1 (antibody, human IgG1, kappa)
heavy: B1 heavy with E233I
light: B1 light
notes: copies: 2 + 2
B9: M103205H795-MY466/M103202L889-SK1 (antibody, human IgG1, kappa)
heavy: B1 heavy with E233L
light: B1 light
notes: copies: 2 + 2
B10: M103205H795-MY461/M103202L889-SK1 (antibody, human IgG1, kappa)
heavy: B1 heavy with E233F
light: B1 light
notes: copies: 2 + 2
B11: M103205H795-MY469/M103202L889-SK1 (antibody, human IgG1, kappa)
heavy: B1 heavy with E233P
light: B1 light
notes: copies: 2 + 2
B12: M103205H795-MY468/M103202L889-SK1 (antibody, human IgG1, kappa)
heavy: B1 heavy with E233N
light: B1 light
notes: copies: 2 + 2

Biological target: T1, human FcγRIIaR extracellular domain, …
Experiment: SPR (BIACORE); KD of SG1 divided by KD of variant;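 also: relative to parent M103205H795-SG1 carrying the SG1 human heavy chain constant region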
Protocol: (§1) The kinetic analysis of interactions between these antibodies and FcγR was carried out using BIACORE® T200 or BIACORE® 4000 (GE Healthcare). HBS-EP+ (GE Healthcare) was used as the running buffer, and the measurement temperature was set to 25° C. A chip produced by immobilizing Protein A. Protein A/G or mouse anti-human IgG kappa light chain (BD Biosciences) onto a Series S Sensor Chip CM4 or CM5 (GE Healthcare) by the amine-coupling method was used. […] After the measurement, the antibody captured on the chip was washed off by allowing reaction with 10 mM glycine-HCl, pH1.5 and 25 mM NaOH so that the chip was regenerated and used repeatedly. The sensorgrams obtained as measurement results were analyzed by the 1:1 Langmuir binding model using the BIACORE® Evaluation Software to calculate the binding rate constant ka (L/mol/s) and dissociation rate constant kd (l/s), and the dissociation constant KD (mol/L) was calculated from these values. […] Regarding such interactions, KD values were calculated using the following 1:1 binding model described in BIACORE® T100 Software Handbook BR1006-48 Edition AE.

Binder	KD fold (SG1 = 1) [fold]
B1	2
B2	1.8
B3	2.2
B4	2.5
B5	2.5
B6	3.1
B7	2.2
B8	4.2
B9	4.2
B10	3.2
B11	2.6
B12	2.3

What follows are binders tested against T8, human FcγRIIIaV extracellular domain, His-tagged (human, UniProt P08637 17-208) (assay: SPR (BIACORE); KD of SG1 divided by KD of variant;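 also: relative to parent M103205H795-SG1 carrying the SG1 human heavy chain constant region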).
T8 construct: also called FcgRIIIaV; not shown: C-terminal His-tag
Protocol: as §1

T8 sequence (P08637 17-208 F176V): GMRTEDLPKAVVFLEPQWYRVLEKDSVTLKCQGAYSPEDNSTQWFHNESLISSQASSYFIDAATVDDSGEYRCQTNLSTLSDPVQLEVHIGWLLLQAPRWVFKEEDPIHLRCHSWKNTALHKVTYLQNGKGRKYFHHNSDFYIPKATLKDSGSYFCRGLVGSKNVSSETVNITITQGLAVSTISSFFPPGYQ

Binder	KD fold (SG1 = 1) [fold]
B1	0.1
B2	0.1
B3	0.3
B4	0.2
B5	0.2
B6	0.2
B7	0.2
B8	0.2
B9	0.3
B10	0.3
B11	0.1
B12	0.1

These binders were tested against T2, human FcγRIIaH extracellular domain, … (assay: SPR (BIACORE); KD of SG1 divided by KD of variant;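 also: relative to parent M103205H795-SG1 carrying the SG1 human heavy chain constant region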).
Protocol: as §1

Binder	KD fold (SG1 = 1) [fold]
B1	2.7
B2	2.8
B3	2.9
B4	3
B5	3.3
B6	3.8
B7	3.1
B8	4.1
B9	4.1
B10	3.8
B11	3.5
B12	2.5

The binders below were run against T3, human FcγRIIb extracellular domain, … (assay: SPR (BIACORE); KD of SG1 divided by KD of variant;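 also: relative to parent M103205H795-SG1 carrying the SG1 human heavy chain constant region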).
Protocol: as §1

Binder	KD fold (SG1 = 1) [fold]
B1	1.9
B2	1.6
B3	2.4
B4	1.8
B5	2
B6	2.3
B7	2
B8	2.9
B9	3.3
B10	2.7
B11	1.9
B12	1.8

Biological target: T4, cynomolgus monkey FcγRIIb extracellular …
Experiment: SPR (BIACORE); KD of SG1 divided by KD of variant
Protocol: as §1

Binder	KD fold (SG1 = 1) [fold]
B1	2.3
B2	2.6
B3	3.8
B4	2.6
B5	3.3
B6	2.5
B7	3.1
B8	3.6
B9	3.5
B10	3.8
B11	3
B12	2.8

Biological target: T5, cynomolgus monkey FcγRIIa1 …
Experiment: SPR (BIACORE); KD of SG1 divided by KD of variant
Protocol: as §1

Binder	KD fold (SG1 = 1) [fold]
B1	1
B2	1.6
B3	1.7
B4	1.2
B5	1.5
B6	1.7
B7	1.5
B8	1.7
B9	1.7
B10	1.8
B11	1.5
B12	1.1

Biological target: T6, cynomolgus monkey FcγRIIa2 …
Experiment: SPR (BIACORE); KD of SG1 divided by KD of variant
Protocol: as §1

Binder	KD fold (SG1 = 1) [fold]
B1	1.6
B2	1.3
B3	3.2
B4	2.4
B5	2.8
B6	2.7
B7	2.3
B8	3.4
B9	2.3
B10	2.5
B11	2.4
B12	2

Biological target: T7, cynomolgus monkey FcγRIIa3 …
Experiment: SPR (BIACORE); KD of SG1 divided by KD of variant
Protocol: as §1

Binder	KD fold (SG1 = 1) [fold]
B1	3.1
B2	3.3
B3	4
B4	3.8
B5	3.5
B6	3.6
B7	3.9
B8	4.4
B9	3.9
B10	4.9
B11	3.5
B12	3.3
